{"source": "paper PMC7210271", "about": "“Structural basis for impairment of DNA methylation by the DNMT3A R882H mutation” (Nature Communications, 2020)", "target": "the molecule itself", "assay": "crystal structure; DNMT3A(628-912, WT or R882H)-DNMT3L(178-386) tetramer covalently bound to 25-mer zebularine DNA duplex (CGA, CGT or CAG) and SAH; crystals at 4 °C from 0.1 M sodium citrate pH 4.2 or 4.4, PEG8000", "data": [{"protein": "DNMT3A R882H mutant, MTase (C-terminal) domain, residues 628-912 (domain or fragment, UniProt Q9Y6K1 628-912, looked up, catalytic cysteine C710 covalently linked to zebularine of the DNA (in the crystallised complexes), DNMT3A, MTase domain (C-terminal domain), residues 628-912, with the AML hotspot mutation R882H; R882H is a mutation found in acute myeloid leukemia patients; it was removed by ULP1; also called R882H-mutated DNMT3A; R882H DNMT3A; source: E. coli BL21 DE3 (RIL), co-expressed with DNMT3L, purified (Ni-NTA, Heparin, SEC); not shown: His6-SUMO, N-terminal, cleaved) AEKRKPIRVLSLFDGIATGLLVLKDLGIQVDRYIASEVCEDSITVGMVRHQGKIMYVGDVRSVTQKHIQEWGPFDLVIGGSPCNDLSIVNPARKGLYEGTGRLFFEFYRLLHDARPKEGDDRPFFWLFENVVAMGVSDKRDISRFLESNPVMIDAKEVSAAHRARYFWGNLPGMNRPLASTVNDKLELQECLEHGRIAKFSKVRTITTRSNSIKQGKDQHFPVFMNEKEDILWCTEMERVFGFPVHYTDVSNMSHLARQRLLGRSWSVPVIRHLFAPLKEYFACV", "values": [{"measurement": "binding result", "result": "binds"}]}]}
